Results: publication PMC8660890

Target: recombinant β subunit of human MUC4 mucin (rMUC4β) (human)
Assay: native gel or EMSA; Blue Native PAGE of purified rMUC4β following thermal denaturation, non-reducing conditions; western blot with anti-His tag mAb

Substance “recombinant β subunit of human MUC4 mucin (rMUC4β) (domain or fragment)” has a stoichiometry N of 2.
